From article PMC5829826
Changes are numbered by the printed parent chain. pKd: −log10 of the molar value.

Columns and labels:
Assay in all cases: EMSA
Settings in all cases: 60 mM HEPES-KOH pH 7.5, 25 mM MgCl2, 5 mM EDTA, 300 mM KCl, 50 µg/ml BSA, 3 mM DTT, 24 ng labeled DNA, 20 min, room temperature
[1] = target: T1, Cra WT (Escherichia coli EHEC TUV93-0) (UniProt P0ACP1)
T1 sequence: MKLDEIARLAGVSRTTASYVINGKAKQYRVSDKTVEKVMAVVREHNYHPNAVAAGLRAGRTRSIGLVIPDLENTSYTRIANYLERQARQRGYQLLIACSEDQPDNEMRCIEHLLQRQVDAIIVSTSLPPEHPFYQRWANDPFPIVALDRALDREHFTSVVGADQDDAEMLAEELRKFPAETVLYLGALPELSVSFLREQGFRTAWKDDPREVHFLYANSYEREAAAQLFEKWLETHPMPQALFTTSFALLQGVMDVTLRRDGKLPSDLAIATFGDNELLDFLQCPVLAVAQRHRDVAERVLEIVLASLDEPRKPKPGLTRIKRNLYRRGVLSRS

[2] = target: T2, Cra Y47E Y47E (Escherichia coli EHEC TUV93-0) (UniProt P0ACP1)
T2 sequence: T1 sequence with Y47E

[3] = target: T3, Cra Y47F Y47F (Escherichia coli EHEC TUV93-0) (UniProt P0ACP1)
T3 sequence: T1 sequence with Y47F

[4] = system: Cra WT (Escherichia coli EHEC TUV93-0)
[5] = system: Cra Y47F (Escherichia coli EHEC TUV93-0)
[6] = target: T4, PurR WT (Escherichia coli (TUV93-0?)) (UniProt P0ACP7)
T4 sequence: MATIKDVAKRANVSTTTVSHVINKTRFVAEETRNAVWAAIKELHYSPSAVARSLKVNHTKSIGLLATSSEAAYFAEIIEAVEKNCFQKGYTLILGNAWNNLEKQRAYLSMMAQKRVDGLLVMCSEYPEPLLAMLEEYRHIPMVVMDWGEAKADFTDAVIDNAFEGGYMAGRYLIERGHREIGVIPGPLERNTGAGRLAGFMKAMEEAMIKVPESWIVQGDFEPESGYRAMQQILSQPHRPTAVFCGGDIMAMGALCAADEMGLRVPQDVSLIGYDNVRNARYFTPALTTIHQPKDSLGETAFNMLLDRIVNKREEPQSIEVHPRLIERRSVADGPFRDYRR

[7] = target: T5, PurR Y45E Y45E (Escherichia coli (TUV93-0?)) (UniProt P0ACP7)
T5 sequence: T4 sequence with Y45E

[8] = target: T6, PurR Y45F Y45F (Escherichia coli (TUV93-0?)) (UniProt P0ACP7)
T6 sequence: T4 sequence with Y45F

[9] = system: LacI WT, ORF:a00089fe
[10] = system: LacI Y47E Y47E, ORF:a00089fe
[11] = system: LacI Y47F Y47F, ORF:a00089fe

For “CACCTCCTAACTACTTAAAATTGCTATCATTCGTTATTGTTATCTAGTTGTGCAAAACATGCTAATGTAGCCACCAAATCATACTACAATTTATTAACTGTTATCTATAATGGCGAAAAGCGATGCTGAAAGGTGTCAGCTTTGCAAAAATTTGATTTGGATCACGTAATCAGTACCCAGAAGTGAGTAATCTTGCTTACGCCACTTGGAAGTGACGCATTAGAGATAATAACTCTAATGTTTAAACTCTTTTAGTAAATCACAGTGAGTGTGTGCGC (double strand) [adhE regulatory fragment]”, the binding [1] was “binds”, the binding [2] was “no binding” and the binding [3] was “binds”.
LEE1 (ler) regulatory fragment gave a pKd [4] of 6.95, a binding signal (% reduction of binding vs no metabolite) [4] of 33 and a pKd [5] of 6.89. It also gave a binding signal (% reduction of binding vs no metabolite) [5] of 33.
For “TTTACGGCTTTCCTTGCGTGCTGAAACAGAAGTATTATGCTTTCTTGAAACGTTTCAGCGCGATCTTGTCTTTAACCCTAAGCCAGGTTGGCGCTTTTTTTCTCATAGAAGCTGAATCGTTTCAATTCAGCAAGAGAGGAGAACTATGTTCCAGTTATCCGTACAGGACATCCATCCGGGCGAAAAGGCCGGAGACAAAGAAGAGGCGATTCGCCAGGTCGCTGCGGCGCTGGTGCAGGCCGGTAATGTAGCAGAAGGCTACGTCAATGGCATGCTG (double strand) [fruB regulatory fragment]”, the binding [1] was “binds”, the binding [2] was “no binding” and the binding [3] was “binds”.
In the case of “CGTAATCAATCCAGACCATATGTGTCCCACGATTTTACGCCCTGTCATCCTGTTCGGGGGCGCATTCTAACAGAAAAAGAAAACGTTTGCGTAGGGATTTCCTTCCCGCGCATCAATAAAAATGGCGCTGAAAAAATATTCAACGCCATCGACTTTTTATGCCTTTGCGGCATCGGACAATGCGTGTCGGATGCGGCGTAAACGTCTTATCCGACCTACGGTTCTACC (double strand) [purF-cvpA regulatory fragment]”, the binding [6] was “binds”, the binding [7] was “no binding” and the binding [8] was “binds”.
In the case of “CGACGGCCAGTGAATCTGTAATCATAGTCATAGCTGTATCCTGTGTGAAATTGTTATCCGCTCACAATTTCACACAACATACGAGCCGGACGCATAGAGTGTAAAGCGTGGGGTGCCTAATGAGTGAGCTGACTCACATTAATTGCGTTGCGCTCACTGCCCGCTTTCCAGTCGGGAAACTTGTCGTGCCAGCTGCATTAATGAATCG (double strand) [lacO1O3 fragment]”, the binding [9] was “binds”, the binding [10] was “no binding” and the binding [11] was “binds”.
For “CATGTGCTGCGACTGCGTTCGCTTACCCCAATCACTTACTTATGTAAGCTCCTGGGGATTCACTCGCTTGCCGCCTTCCTGTAACTCGAATTAAGTAGAGTATAGTGAAACGGTTCAGCTTGGTTTTTATTCTGTTTTATTTGTTTATGCAATGAGATCTATCTTATAAAGAGAAACGCTTAACTAAATGGAAATGC (double strand) [LEE1 (ler) regulatory fragment]”, the pKd [1] was 6.95, the binding [1] was “binds” and the binding [2] was “no binding”. The pKd [3] was 6.89 and the binding [3] was “binds”.
